Assays:
[1] = target: T1, V5-tagged wild type murine Siae (UniProt P70665)
T1 sequence: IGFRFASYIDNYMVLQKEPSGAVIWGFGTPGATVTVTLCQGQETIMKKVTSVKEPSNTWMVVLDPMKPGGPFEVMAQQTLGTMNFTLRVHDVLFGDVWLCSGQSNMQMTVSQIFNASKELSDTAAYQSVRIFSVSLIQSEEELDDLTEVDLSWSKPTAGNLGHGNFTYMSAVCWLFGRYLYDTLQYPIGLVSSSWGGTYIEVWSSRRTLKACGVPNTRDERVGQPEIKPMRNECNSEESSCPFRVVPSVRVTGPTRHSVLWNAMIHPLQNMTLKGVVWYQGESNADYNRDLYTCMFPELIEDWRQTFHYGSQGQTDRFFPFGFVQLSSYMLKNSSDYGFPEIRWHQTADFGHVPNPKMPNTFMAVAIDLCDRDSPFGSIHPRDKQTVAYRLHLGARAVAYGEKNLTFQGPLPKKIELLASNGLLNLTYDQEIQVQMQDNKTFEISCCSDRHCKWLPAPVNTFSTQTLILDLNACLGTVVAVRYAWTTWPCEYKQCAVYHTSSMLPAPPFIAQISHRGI

[2] = target: T2, V5-tagged wild type murine Siae, P70665
T2 chain: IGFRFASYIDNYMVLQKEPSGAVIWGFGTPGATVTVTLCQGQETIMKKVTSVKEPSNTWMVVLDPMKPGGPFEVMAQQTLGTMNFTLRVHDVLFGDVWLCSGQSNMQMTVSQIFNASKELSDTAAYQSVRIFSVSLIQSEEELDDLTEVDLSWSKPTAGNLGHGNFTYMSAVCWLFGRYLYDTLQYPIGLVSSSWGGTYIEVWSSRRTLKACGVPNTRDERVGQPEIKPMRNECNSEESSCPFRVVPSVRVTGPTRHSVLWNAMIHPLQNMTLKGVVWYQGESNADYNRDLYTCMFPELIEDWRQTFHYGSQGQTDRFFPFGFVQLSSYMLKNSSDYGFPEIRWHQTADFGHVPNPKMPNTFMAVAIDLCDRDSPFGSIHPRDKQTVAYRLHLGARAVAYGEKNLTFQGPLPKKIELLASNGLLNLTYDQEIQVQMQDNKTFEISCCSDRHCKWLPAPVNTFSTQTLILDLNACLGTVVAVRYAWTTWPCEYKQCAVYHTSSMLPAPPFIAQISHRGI

FLAG-tagged murine R505C Siae
enzyme activity of V5-tagged wild type Siae in co-transfectants, as a function of its protein level [1]: function in a dominant interfering fashion

FLAG-tagged murine Y375C Siae
enzyme activity of V5-tagged wild type Siae in co-transfectants, as a function of its protein level [1]: function in a dominant interfering fashion

FLAG-tagged murine F430S Siae
enzyme activity of V5-tagged wild type Siae in co-transfectants, as a function of its protein level [1]: function in a dominant interfering fashion

FLAG-tagged murine Q335P SIAE
enzyme activity of V5 tagged wild type SIAE in co-transfectants, as a function of its protein level [1]: function in a dominant interfering fashion

FLAG-tagged K426N Siae
enzyme activity of V5-tagged WT Siae in co-transfectants, as a function of its protein level [1]: lacks dominant negative activity

FLAG-tagged murine T338M SIAE
enzyme activity of V5 tagged wild type SIAE in co-transfectants, as a function of its protein level [1]: function in a dominant interfering fashion

B1: FLAG-tagged murine C196F SIAE (protein)
chain: IGFRFASYIDNYMVLQKEPSGAVIWGFGTPGATVTVTLCQGQETIMKKVTSVKEPSNTWMVVLDPMKPGGPFEVMAQQTLGTMNFTLRVHDVLFGDVWLCSGQSNMQMTVSQIFNASKELSDTAAYQSVRIFSVSLIQSEEELDDLTEVDLSWSKPTAGNLGHGNFTYMSAVFWLFGRYLYDTLQYPIGLVSSSWGGTYIEVWSSRRTLKACGVPNTRDERVGQPEIKPMRNECNSEESSCPFRVVPSVRVTGPTRHSVLWNAMIHPLQNMTLKGVVWYQGESNADYNRDLYTCMFPELIEDWRQTFHYGSQGQTDRFFPFGFVQLSSYMLKNSSDYGFPEIRWHQTADFGHVPNPKMPNTFMAVAIDLCDRDSPFGSIHPRDKQTVAYRLHLGARAVAYGEKNLTFQGPLPKKIELLASNGLLNLTYDQEIQVQMQDNKTFEISCCSDRHCKWLPAPVNTFSTQTLILDLNACLGTVVAVRYAWTTWPCEYKQCAVYHTSSMLPAPPFIAQISHRGI
enzyme activity of V5 tagged wild type SIAE in co-transfectants, as a function of its protein level [2]: function in a dominant interfering fashion

B2: FLAG-tagged murine G212R Siae (protein)
chain: IGFRFASYIDNYMVLQKEPSGAVIWGFGTPGATVTVTLCQGQETIMKKVTSVKEPSNTWMVVLDPMKPGGPFEVMAQQTLGTMNFTLRVHDVLFGDVWLCSGQSNMQMTVSQIFNASKELSDTAAYQSVRIFSVSLIQSEEELDDLTEVDLSWSKPTAGNLGHGNFTYMSAVCWLFGRYLYDTLQYPIRLVSSSWGGTYIEVWSSRRTLKACGVPNTRDERVGQPEIKPMRNECNSEESSCPFRVVPSVRVTGPTRHSVLWNAMIHPLQNMTLKGVVWYQGESNADYNRDLYTCMFPELIEDWRQTFHYGSQGQTDRFFPFGFVQLSSYMLKNSSDYGFPEIRWHQTADFGHVPNPKMPNTFMAVAIDLCDRDSPFGSIHPRDKQTVAYRLHLGARAVAYGEKNLTFQGPLPKKIELLASNGLLNLTYDQEIQVQMQDNKTFEISCCSDRHCKWLPAPVNTFSTQTLILDLNACLGTVVAVRYAWTTWPCEYKQCAVYHTSSMLPAPPFIAQISHRGI
enzyme activity of V5-tagged wild type Siae in co-transfectants, as a function of its protein level [2]: function in a dominant interfering fashion
